From paper PMC3438747, “Role of Motif III in Catalysis by Acetyl-CoA Synthetase” (Archaea, 2012)
Values belong to the molecule of their own block, whether it stands above or below them.

Tests used:
[1] = target: Acs1Mt Gly501Ala variant (Methanothermobacter thermautotrophicus); experiment: SEC; Superose 12 gel filtration column, 50 mM Tris pH 7.5 with 150 mM KCl, calibrated with mass standards; subunit composition (dimer)
[2] = target: Acs1Mt Asp502Glu variant (Methanothermobacter thermautotrophicus); experiment: as above
[3] = target: Acs1Mt Tyr498Ala variant (Methanothermobacter thermautotrophicus); experiment: as above
[4] = target: Acs1Mt Asp502Ala variant (Methanothermobacter thermautotrophicus); experiment: as above
[5] = target: Acs1Mt Ala500Thr variant (Methanothermobacter thermautotrophicus); experiment: as above
[6] = target: Acs1Mt Thr499Ala variant (Methanothermobacter thermautotrophicus); experiment: as above
[7] = target: Methanothermobacter thermautotrophicus Acs1 (AMP-forming acetyl-CoA synthetase), unaltered (Methanothermobacter thermautotrophicus); experiment: as above
Acs1Mt = target: T1, Acs1Mt (Methanothermobacter thermautotrophicus, UniProt Q2XNL6); experiment: hydroxamate assay, reciprocal plot of velocity vs inhibitor; assay type: biochemical; conditions: all three substrates (acetate, MgATP, CoA) saturating; pH 7.5; 65 °C
T1 construct: gene acs1; recombinant in E. coli Rosetta Blue (DE3); Q-sepharose and phenyl sepharose purification; dimer; motif III 498-YTAGD-502

[8] = target: Acs1Mt Tyr498Phe variant (Methanothermobacter thermautotrophicus); experiment: SEC; Superose 12 gel filtration column, 50 mM Tris pH 7.5 with 150 mM KCl, calibrated with mass standards; subunit composition (dimer)
[9] = target: T2, acetyl-CoA synthetase (Acs1Mt) (Methanothermobacter thermautotrophicus, UniProt O26319); experiment: inhibition of purified enzyme, hydroxamate assay; assay type: biochemical
T2 construct: gene MTH_217
T2 sequence (O26319 1-558): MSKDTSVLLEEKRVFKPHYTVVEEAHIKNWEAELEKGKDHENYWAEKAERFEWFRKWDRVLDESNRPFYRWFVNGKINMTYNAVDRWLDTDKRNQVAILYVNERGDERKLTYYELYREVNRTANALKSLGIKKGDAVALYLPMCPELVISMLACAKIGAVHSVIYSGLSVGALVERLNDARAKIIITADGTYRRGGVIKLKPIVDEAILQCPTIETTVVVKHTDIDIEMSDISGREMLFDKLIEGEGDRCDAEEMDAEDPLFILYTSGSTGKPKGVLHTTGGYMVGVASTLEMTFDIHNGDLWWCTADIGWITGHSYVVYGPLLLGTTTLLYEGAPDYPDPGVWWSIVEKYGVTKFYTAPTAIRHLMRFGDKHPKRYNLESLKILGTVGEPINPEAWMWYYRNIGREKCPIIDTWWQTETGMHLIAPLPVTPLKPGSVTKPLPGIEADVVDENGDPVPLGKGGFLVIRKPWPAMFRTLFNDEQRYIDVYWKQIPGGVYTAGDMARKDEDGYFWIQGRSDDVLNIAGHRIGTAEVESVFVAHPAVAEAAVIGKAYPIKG

[10] = target: Acs1Mt Asp502Asn variant (Methanothermobacter thermautotrophicus); experiment: SEC; Superose 12 gel filtration column, 50 mM Tris pH 7.5 with 150 mM KCl, calibrated with mass standards; subunit composition (dimer)
purified protein = substrate: CC(=O)O; experiment: purified protein; conditions: Mg2+
[11] = substrate: CC(C)(COP(=O)(O)OP(=O)(O)OC[C@H]1O[C@@H](n2cnc3c(N)ncnc32)[C@H](O)[C@@H]1OP(=O)(O)O)[C@@H](O)C(=O)NCCC(=O)NCCS; experiment: Michaelis-Menten kinetics of purified recombinant enzyme, hydroxamate assay (Km); assay type: biochemical, Methanothermobacter thermautotrophicus; conditions: Mg2+
[12] = substrate: Nc1ncnc2c1ncn2[C@@H]1O[C@H](COP(=O)(O)OP(=O)(O)OP(=O)(O)O)[C@@H](O)[C@H]1O; experiment: as above; assay type: biochemical, Methanothermobacter thermautotrophicus; conditions: Mg2+ active site; Asp502 interacts with the OH groups of the ribose moiety (model)

T1 sequence (Q2XNL6 1-634): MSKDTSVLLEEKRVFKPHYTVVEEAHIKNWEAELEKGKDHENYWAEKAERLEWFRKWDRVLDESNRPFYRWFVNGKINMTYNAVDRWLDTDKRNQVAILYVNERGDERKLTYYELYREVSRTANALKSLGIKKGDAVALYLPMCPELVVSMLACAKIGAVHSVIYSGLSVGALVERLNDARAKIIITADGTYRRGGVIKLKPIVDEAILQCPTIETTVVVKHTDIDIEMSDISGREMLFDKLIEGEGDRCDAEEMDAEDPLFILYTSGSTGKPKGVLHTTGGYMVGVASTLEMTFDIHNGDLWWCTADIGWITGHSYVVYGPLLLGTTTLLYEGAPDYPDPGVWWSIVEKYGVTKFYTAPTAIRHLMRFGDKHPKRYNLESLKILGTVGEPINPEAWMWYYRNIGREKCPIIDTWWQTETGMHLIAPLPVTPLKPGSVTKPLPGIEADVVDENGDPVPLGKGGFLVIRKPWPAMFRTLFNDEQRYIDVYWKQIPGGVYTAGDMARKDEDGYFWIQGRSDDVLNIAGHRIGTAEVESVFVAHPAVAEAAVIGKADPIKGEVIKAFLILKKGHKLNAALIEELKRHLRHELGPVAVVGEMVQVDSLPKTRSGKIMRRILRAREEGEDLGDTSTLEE

stoichiometry N [1]: 2
Molecule: Acs1Mt Gly501Ala variant (enzyme)

stoichiometry N [2]: 2
Molecule: Acs1Mt Asp502Glu variant (enzyme)

stoichiometry N [3]: 2
Molecule: Acs1Mt Tyr498Ala variant (enzyme)

stoichiometry N [4]: 2
Molecule: Acs1Mt Asp502Ala variant (enzyme)

stoichiometry N [5]: 2
Molecule: Acs1Mt Ala500Thr variant (enzyme)

stoichiometry N [6]: 2
Molecule: Acs1Mt Thr499Ala variant (enzyme)

stoichiometry N [7]: 2
Molecule: Methanothermobacter thermautotrophicus Acs1 (AMP-forming acetyl-CoA synthetase), unaltered (enzyme)

Ki (Acs1Mt): 53 mM
Molecule: OC1OC[C@@H](O)[C@@H](O)[C@H]1O (some centres unmarked) [ribose]

stoichiometry N [8]: 2
Molecule: Acs1Mt Tyr498Phe variant (enzyme)

Ki [9]: 53 mM
Molecule: O=C[C@H](O)[C@H](O)[C@H](O)CO [ribose]

stoichiometry N [10]: 2
Molecule: Acs1Mt Asp502Asn variant (enzyme)

B1: acetyl-CoA synthetase (Acs1Mt) (Methanothermobacter thermautotrophicus str. Delta H) (protein)
chain: T2 sequence (O26319 1-558)
Km (purified protein): 3.5 ± 0.1 mM
Km [11]: 0.19 ± 0.003 mM
Km [12]: 3.3 ± 0.2 mM
